From IntAct's records for PubMed 24229708

B1: Runt-related transcription factor 3 (Homo sapiens), Q13761 (parent)
chain: MRIPVDPSTSRRFTPPSPAFPCGGGGGKMGENSGALSAQAAVGPGGRARPEVRSMVDVLADHAGELVRTDSPNFLCSVLPSHWRCNKTLPVAFKVVALGDVPDGTVVTVMAGNDENYSAELRNASAVMKNQVARFNDLRFVGRSGRGKSFTLTITVFTNPTQVATYHRAIKVTVDGPREPRRHRQKLEDQTKPFPDRFGDLERLRMRVTPSTPSPRGSLSTTSHFSSQPQTPIQGTSELNPFSDPRQFDRSFPTLPTLTESRFPDPRMHYPGAMSAAFPYSATPSGTSISSLSVAGMPATSRFHHTYLPPPYPGAPQNQSGPFQANPSPYHLYYGTSSGSYQFSMVAGSSSGGDRSPTRMLASCTSSAASVAAGNLMNPSLGGQSDGVEADGSHSNSPTALSTPGRMDEAVWRPY

Variants of: B1
Settings: with brd2_human BRD2, P25440

Row | Variant | effect of a mutation on the interaction
1 | K94R | disrupting interaction
2 | K171R | decreasing interaction
3 | K87R;K94R;K129R;K148R;K171R;K186R | disrupting interaction
4 | K94R;K171R | disrupting interaction
